Measurements published in patent CN112745392A (SHANGHAI NOVAMAB BIOPHARMACEUTICALS CO LTD, dated 2021).

What was measured:
[1] = molecular target: T1, 人CD47 (Jurkat细胞, 高表达人CD47) (human, UniProt Q08722 19-323); assay: flow cytometry competition against hSIRPa(ECD)-Fc-Biotin on Jurkat cells
T1 construct: whole, on cells

[2] = molecular target: T2, hCD47(ECD)-Fc (human, UniProt Q08722 19-139); assay: BLI (Fortebio Red96), Protein A probes, 30℃
T2 construct: extracellular domain; not shown: Fc part not described

[3] = molecular target: T3, hPD-L1(ECD)-Fc (human, UniProt Q9NZQ7 19-238); assay: BLI (Fortebio Red96), Protein A probes, 30℃
T3 construct: extracellular domain; also called 重组人PD-L1; not shown: Fc part not described
T3 sequence (Q9NZQ7 19-238): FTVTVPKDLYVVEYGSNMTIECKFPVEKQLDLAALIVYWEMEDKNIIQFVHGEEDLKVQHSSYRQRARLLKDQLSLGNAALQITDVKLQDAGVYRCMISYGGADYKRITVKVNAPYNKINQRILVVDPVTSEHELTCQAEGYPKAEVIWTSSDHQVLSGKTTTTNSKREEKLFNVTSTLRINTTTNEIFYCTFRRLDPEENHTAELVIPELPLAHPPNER

T2 sequence (Q08722 19-139): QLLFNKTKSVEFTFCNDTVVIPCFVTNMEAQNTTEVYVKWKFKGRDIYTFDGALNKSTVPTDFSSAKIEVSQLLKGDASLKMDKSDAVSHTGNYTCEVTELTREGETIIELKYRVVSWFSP
T1 sequence (Q08722 19-323): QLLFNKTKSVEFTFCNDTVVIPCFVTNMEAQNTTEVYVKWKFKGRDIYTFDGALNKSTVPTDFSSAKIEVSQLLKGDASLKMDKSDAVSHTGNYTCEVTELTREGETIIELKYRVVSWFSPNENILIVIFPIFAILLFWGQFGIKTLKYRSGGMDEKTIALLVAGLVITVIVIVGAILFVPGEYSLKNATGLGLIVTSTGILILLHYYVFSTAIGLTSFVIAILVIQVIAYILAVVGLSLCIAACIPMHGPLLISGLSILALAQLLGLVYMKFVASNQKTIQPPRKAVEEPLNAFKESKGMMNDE

B1: CD47单域抗体Fc融合蛋白(Nb-Fc) (Fc fusion)
chain: QVQLQESGGGLVQPGGSLRLSCAASGYAYTSDCMGWFRQTPGKGLEGVALIYTPGASTNYADSVKGRFTISQDNSKSTVYLQMNSLRAEDTAMYYCAARRGACSLRLPFFYWGQGTLVTVSS
notes: Control; also called CD47 Nb-Fc; 原始CD47单域抗体; not shown: Fc part (and any hinge or linker) of the control fusion is not described
[1]
  IC50: 4.49 nM
[2]
  Kd: 6.13 nM

B2: PD-L1单域抗体Fc融合蛋白(Nb-Fc) (Fc fusion)
chain: QVQLQESGGGLVQPGGSLRLSCTASGYNLSPSCMGWFRQAPGKGLEGVAFTDADGSTRYADSVKARFTISRDNSKNTLYLQMNSLRAEDTAVYYCAADFFSYCSVVFRASARDKYRGQGTLVTVSS
notes: Control; also called PD-L1 Nb-Fc; 原始PD-L1单域抗体; not shown: Fc part (and any hinge or linker) of the control fusion is not described
[3]
  Kd: 26.5 nM
